{"source": "patent US20200101171A1", "target": "IGF-1 receptor (UniProt P08069)", "sequence (P08069 31-1367 limits assumed)": "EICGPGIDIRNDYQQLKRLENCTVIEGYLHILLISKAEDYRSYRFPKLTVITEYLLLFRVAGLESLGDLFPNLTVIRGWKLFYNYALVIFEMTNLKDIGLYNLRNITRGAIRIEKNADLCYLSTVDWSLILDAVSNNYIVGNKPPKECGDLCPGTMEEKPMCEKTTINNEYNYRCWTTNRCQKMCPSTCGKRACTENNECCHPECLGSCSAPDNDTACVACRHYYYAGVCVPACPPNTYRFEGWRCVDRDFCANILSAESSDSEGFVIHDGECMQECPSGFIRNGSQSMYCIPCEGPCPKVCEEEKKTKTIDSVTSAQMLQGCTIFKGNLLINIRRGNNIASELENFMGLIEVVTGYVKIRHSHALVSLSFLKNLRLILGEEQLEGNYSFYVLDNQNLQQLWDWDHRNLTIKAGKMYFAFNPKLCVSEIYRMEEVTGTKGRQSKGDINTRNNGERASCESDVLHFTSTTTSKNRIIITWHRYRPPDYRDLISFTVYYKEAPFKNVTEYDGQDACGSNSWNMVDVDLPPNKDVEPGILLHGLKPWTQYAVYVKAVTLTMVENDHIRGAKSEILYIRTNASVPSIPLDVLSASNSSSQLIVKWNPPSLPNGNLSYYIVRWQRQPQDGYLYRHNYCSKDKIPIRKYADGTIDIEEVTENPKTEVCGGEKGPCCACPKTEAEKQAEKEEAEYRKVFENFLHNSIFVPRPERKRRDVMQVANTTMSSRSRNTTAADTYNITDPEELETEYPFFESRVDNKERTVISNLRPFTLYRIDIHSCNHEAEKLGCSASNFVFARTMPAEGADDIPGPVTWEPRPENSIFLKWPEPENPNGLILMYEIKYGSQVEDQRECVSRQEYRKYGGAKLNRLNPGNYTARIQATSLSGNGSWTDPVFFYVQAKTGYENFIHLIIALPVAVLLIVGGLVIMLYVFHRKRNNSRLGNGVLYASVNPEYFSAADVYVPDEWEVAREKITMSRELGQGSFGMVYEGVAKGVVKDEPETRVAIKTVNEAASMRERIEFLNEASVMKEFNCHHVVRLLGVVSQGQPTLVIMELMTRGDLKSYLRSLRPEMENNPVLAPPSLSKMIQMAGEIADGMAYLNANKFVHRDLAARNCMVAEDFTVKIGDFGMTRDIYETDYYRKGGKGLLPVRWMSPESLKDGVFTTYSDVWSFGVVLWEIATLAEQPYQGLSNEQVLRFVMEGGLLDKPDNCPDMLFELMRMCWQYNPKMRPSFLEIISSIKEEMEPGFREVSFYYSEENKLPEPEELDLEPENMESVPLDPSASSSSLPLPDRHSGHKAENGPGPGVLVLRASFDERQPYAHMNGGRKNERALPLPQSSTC", "experiment": "SPA competition by the method of Experimental Example 1; text: relative to human native IGF-1; curve did not reach saturation at the highest concentration", "data": [{"substance": "native insulin-3.4K PEG-immunoglobulin Fc conjugate", "values": [{"measurement": "Receptor binding affinity (%, SPA method), IGF-1R", "result": "< 1", "unit": "%"}]}]}
